B1: F1*; the commonest letter at each place (parent)
chain: GAGACCGCAACTGAAAAGTTGTTATCACTTGTCGTAAGACACTTTGGATGGGTTGAAGTTCTGCACGTAGAAGCAAAAGGC

Variants of: B1
Assay: fraction ligated after 30 min (ligated reads / total reads); higher = more ligase activity
Details: with F1*sub RNA substrate (template-directed ligation), 42 °C
In short: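 Ligase ribozyme variants were made from oligo-pool templates by PCR amplification, T7 transcription and gel purification. After gel separation, ligated and unligated bands were reverse transcribed with barcoded primers and sequenced on a MiSeq, with core bases filtered at quality ≥20. The fraction ligated for each variant was the number of ligated reads divided by total reads.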

Row | Variant | fraction ligated
1 | GAGACCGCAACTGAAAAGTTGTTATCACTTGTCCTAAGACACTTTGGATGGGTTGAAGTTCTGCACGTAGAAGCAAAAGGC [G34C] | 0.832
2 | GAGACCGCAACTGAAAAGTTGTTATCACTTGTCATAAGACACTTTGCATGGGTTGAAGTTCTGCACGTAGAAGCAAAAGGC [G34A G47C] | 0.239
3 | GAGACCGCAACTGAAAAGTTGTTATCACTTGTCATAAGACACTTTGAATGGGTTGAAGTTCTGCACGTAGAAGCAAAAGGC [G34A G47A] | 0.805
4 | GAGACCGCAACTGAAAAGTTGTTATCACTTGTCATAAGACACTTTGTATGGGTTGAAGTTCTGCACGTAGAAGCAAAAGGC [G34A G47T] | 0.373
5 | GAGACCGCAACTGAAAAGTTGTTATCACTTGTCATAAGACACTTTAGATGGGTTGAAGTTCTGCACGTAGAAGCAAAAGGC [G34A G46A] | 0.807
6 | GAGACCGCAACTGAAAAGTTGTTATCACTTGTCATAAGACACTTTCGATGGGTTGAAGTTCTGCACGTAGAAGCAAAAGGC [G34A G46C] | 0.798
7 | GAGACCGCAACTGAAAAGTTGTTATCACTTGTCATAAGACACTTTTGATGGGTTGAAGTTCTGCACGTAGAAGCAAAAGGC [G34A G46T] | 0.778
8 | GAGACCGCAACTGAAAAGTTGTTATCACTTGTCATAACACACTTTGGATGGGTTGAAGTTCTGCACGTAGAAGCAAAAGGC [G34A G38C] | 0.825
9 | GAGACCGCAACTGAAAAGTTGTTATCACTTGTCATAATACACTTTGGATGGGTTGAAGTTCTGCACGTAGAAGCAAAAGGC [G34A G38T] | 0.838
10 | GAGACCGCAACTGAAAAGTTGTTATCACTTGTCATAAAACACTTTGGATGGGTTGAAGTTCTGCACGTAGAAGCAAAAGGC [G34A G38A] | 0.861
11 | GAGACCGCAACTGAAAAGTTGTTATCACTTGTCATAAGACAGTTTGGATGGGTTGAAGTTCTGCACGTAGAAGCAAAAGGC [G34A C42G] | 0.85
12 | GAGACCGCAACTGAAAAGTTGTTATCACTTGTCATAAGACAATTTGGATGGGTTGAAGTTCTGCACGTAGAAGCAAAAGGC [G34A C42A] | 0.839
13 | GAGACCGCAACTGAAAAGTTGTTATCACTTGTCATAAGACATTTTGGATGGGTTGAAGTTCTGCACGTAGAAGCAAAAGGC [G34A C42T] | 0.865
14 | GAGACCGCAACTGAAAAGTTGTTATCACTTGTCAAAAGACACTTTGGATGGGTTGAAGTTCTGCACGTAGAAGCAAAAGGC [G34A T35A] | 0.848
15 | GAGACCGCAACTGAAAAGTTGTTATCACTTGTCAGAAGACACTTTGGATGGGTTGAAGTTCTGCACGTAGAAGCAAAAGGC [G34A T35G] | 0.855
16 | GAGACCGCAACTGAAAAGTTGTTATCACTTGTCACAAGACACTTTGGATGGGTTGAAGTTCTGCACGTAGAAGCAAAAGGC [G34A T35C] | 0.835
17 | GAGACCGCAACTGAAAAGTTGTTATCACTTGTCATAAGACACTTAGGATGGGTTGAAGTTCTGCACGTAGAAGCAAAAGGC [G34A T45A] | 0.797

Row | Variant | fraction ligated
18 | GAGACCGCAACTGAAAAGTTGTTATCACTTGTCATAAGACACTTGGGATGGGTTGAAGTTCTGCACGTAGAAGCAAAAGGC [G34A T45G] | 0.368
19 | GAGACCGCAACTGAAAAGTTGTTATCACTTGTCATAAGACACTTCGGATGGGTTGAAGTTCTGCACGTAGAAGCAAAAGGC [G34A T45C] | 0.795
20 | GAGACCGCAACTGAAAAGTTGTTATCACTTGTCATAAGACACTTTGGATAGGTTGAAGTTCTGCACGTAGAAGCAAAAGGC [G34A G50A] | 0.625
21 | GAGACCGCAACTGAAAAGTTGTTATCACTTGTCATAAGACACTTTGGATCGGTTGAAGTTCTGCACGTAGAAGCAAAAGGC [G34A G50C] | 0.43
22 | GAGACCGCAACTGAAAAGTTGTTATCACTTGTCATAAGACACTTTGGATTGGTTGAAGTTCTGCACGTAGAAGCAAAAGGC [G34A G50T] | 0.778
23 | GAGACCGCAACTGAAAAGTTGTTATCACTTGTCATAAGACACTTTGGAAGGGTTGAAGTTCTGCACGTAGAAGCAAAAGGC [G34A T49A] | 0.786
24 | GAGACCGCAACTGAAAAGTTGTTATCACTTGTCATAAGACACTTTGGAGGGGTTGAAGTTCTGCACGTAGAAGCAAAAGGC [G34A T49G] | 0.819
25 | GAGACCGCAACTGAAAAGTTGTTATCACTTGTCATAAGACACTTTGGACGGGTTGAAGTTCTGCACGTAGAAGCAAAAGGC [G34A T49C] | 0.737
26 | GAGACCGCAACTGAAAAGTTGTTATCACTTGTCATAAGACACTATGGATGGGTTGAAGTTCTGCACGTAGAAGCAAAAGGC [G34A T44A] | 0.842
27 | GAGACCGCAACTGAAAAGTTGTTATCACTTGTCATAAGACACTCTGGATGGGTTGAAGTTCTGCACGTAGAAGCAAAAGGC [G34A T44C] | 0.825
28 | GAGACCGCAACTGAAAAGTTGTTATCACTTGTCATAAGACACTGTGGATGGGTTGAAGTTCTGCACGTAGAAGCAAAAGGC [G34A T44G] | 0.844
29 | GAGACCGCAACTGAAAAGTTGTTATCACTTGTCATAAGACACTTTGGATGGGTTTAAGTTCTGCACGTAGAAGCAAAAGGC [G34A G55T] | 0.811
30 | GAGACCGCAACTGAAAAGTTGTTATCACTTGTCATAAGACACTTTGGATGGGTTAAAGTTCTGCACGTAGAAGCAAAAGGC [G34A G55A] | 0.84
31 | GAGACCGCAACTGAAAAGTTGTTATCACTTGTCATAAGACACTTTGGATGGGTTCAAGTTCTGCACGTAGAAGCAAAAGGC [G34A G55C] | 0.801
32 | GAGACCGCAACTGAAAAGTTGTTATCACTTGTCATAAGACACGTTGGATGGGTTGAAGTTCTGCACGTAGAAGCAAAAGGC [G34A T43G] | 0.799
33 | GAGACCGCAACTGAAAAGTTGTTATCACTTGTCATAAGACACATTGGATGGGTTGAAGTTCTGCACGTAGAAGCAAAAGGC [G34A T43A] | 0.836
34 | GAGACCGCAACTGAAAAGTTGTTATCACTTGTCATAAGACACCTTGGATGGGTTGAAGTTCTGCACGTAGAAGCAAAAGGC [G34A T43C] | 0.779

Source: the supplement of paper PMC6755084
